Test results: PMC3378326

Tests used:
FGF1 = FGF1 (UniProt P05230); assay: SPR
FGF8b = assay: SPR

Sequence of FGF1 (P05230 whole entry): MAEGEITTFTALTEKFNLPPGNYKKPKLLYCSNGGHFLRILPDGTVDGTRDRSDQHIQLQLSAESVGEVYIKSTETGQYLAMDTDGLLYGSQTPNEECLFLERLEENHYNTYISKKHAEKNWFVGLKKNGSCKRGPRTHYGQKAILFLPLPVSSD

Substance | Kd (FGF1) [nM] | Kd (FGF8b) [nM]
D1-D2-D3^ΔAB/linker (FGFR3c), naturally occurring isoform of FGFR3c lacking the AB/linker (domain or fragment) | 310 | 367
D1-AB-D2-D3 (FGFR3c), full-length FGFR3c ectodomain (from UniProt P22607 23-375) (domain or fragment) |  | 888
